Results as given in US20200399369A1 (Sanofi, published 2020).
Blank lines part the entries; values can stand above or below the binder they belong to.

Assays:
[1] = target: T1, human CD38 (human, UniProt P28907 43-300, limits assumed); assay: FACS
T1 construct: also called hCD38; huCD38

[2] = target: T2, cynomolgus monkey CD38 (cynomolgus monkey, UniProt Q5VAN0 44-301, limits assumed); assay: FACS
T2 construct: also called Cyno CD38; cynoCD38

[3] = target: T1, human CD38; assay: ELISA
[4] = target: T2, cynomolgus monkey CD38; assay: ELISA
[5] = target: T1, human CD38; assay: SPR
[6] = target: T2, cynomolgus monkey CD38; assay: SPR
[7] = target: T3, human CD38 on tumor cell lines NCI-H929 (CD38+/CD28+) and OCI-LY19 (CD38+/CD28-) (human, UniProt P28907 1-300); assay: cell-based or functional assay
[8] = target: T3, human CD38 on tumor cell lines NCI-H929 …; assay: cell-based or functional assay; remark: listed apart in the source
[9] = target: T4, Human CD3 (human); assay: ELISA, antigen-coated plate
T4 chain: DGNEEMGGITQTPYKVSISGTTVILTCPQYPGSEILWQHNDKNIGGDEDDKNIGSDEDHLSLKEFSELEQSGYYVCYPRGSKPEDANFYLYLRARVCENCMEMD
Experimental: (§1) Binding affinities to each target antigen by the CD38/CD28×CD3 T cell engagers were measured by ELISA. Briefly, each antigen was used to coat the 96-well Immuno Plate (Thermo Fisher Scientific) overnight at 4° C. using 200 ng/well in PBS (pH7.4) of each antigen. The coated plate was blocked using 5% skim milk+2% BSA in PBS for one hour at RT, followed by washing with PBS+0.25% Tween 20 three times (Aqua Max 400, Molecular Devices). Serial dilution of antibodies (trispecific and control Abs) were prepared and added onto the ELISA plates (100 μl/well in duplicate), incubated at room temperature (RT) for one hour, followed by washing 5 times with PBS+0.25% Tween 20. […] The reaction was terminated by adding 50 μl 1M H₂SO₄, and OD450 was measured using SpectraMax M5 (Molecular Devices) and analyzed using SoftMax Pro6.3 software (Molecular Devices). The final data was transferred to GraphPad Prism software (GraphPad Software, CA, USA), and plotted. EC50 was calculated using the same software.
(§2) The binding affinities of selected CD38/CD28sup×CD3mid_ENLQ DKTHT IgG4 FALA trispecific antibodies with alternative anti-CD38 binding domains for human CD3, human CD28, human CD38 and cynomolgus monkey CD38 were then determined by ELISA as described above.

[10] = target: T1, human CD38; assay: ELISA, antigen-coated plate
Experimental: as §1, §2

[11] = target: T5, Human CD28 (human, UniProt P10747 19-152, limits assumed); assay: ELISA, antigen-coated plate
T5 construct: also called hCD28
Experimental: as §1, §2

[12] = target: T2, cynomolgus monkey CD38; assay: ELISA, antigen-coated plate
Experimental: as §1, §2

[13] = target: T6, Human CD38-His (human, UniProt P28907 43-300, limits assumed); assay: SPR (BIACORE 3000), capture format, 1:1 Langmuir model
T6 construct: Bought antigen; also called human CD38 (SPR antigen); not shown: His tag

B1: AntiCD38_hyb_6284 (antibody, V domains shown)
VH: QVQLLQSGAELVRPGVSVKISCTGSGYSFTNYAVHWVKQSHVKSLEWIGVISPYYGDTTYNQKFTGKATMTVDKSSSTAYMELARLTSEDSAIYFCARRFEGFYYSMDYWGQGTSVTVSS
VL: DVVMIQTPLSLPVSLGDQASISCRPSQSLVHSNGNTYLNWYLQRPGQSPKLLIYKVSKRFSGVPDRFSGSGSGTDFTLKISRVEAEDLGVYLCSQSTHVPLTFGSGTQLEIK
EC50 [1]: 0.4 nM | EC50 [2]: 0.7 nM | EC50 [3]: 0.11 nM | EC50 [4]: 0.13 nM

B2: AntiCD38_hyb_5739 (antibody, V domains shown)
VH: QVQLQQSGPELVRPGTSVKVSCKASGYAFTTYLVEWIKQRPGQGLEWIGVINPGSGSTNYNEKFKGKATLTVDRSSTTAYMHLSGLTSDDSAVYFCARYAYGYWGQGTTLTVSS
VL: DIVMTQSQKFMSASVGDRVSITCKASQNVGTAVAWYQQQPGHSPKQLIYSASNRYTGVPDRFTGSGAGTDFTLTISNIQSEDLADYFCQQYSTYPFTFGSGTKLEIK
EC50 [1]: 0.3 nM | EC50 [2]: 0.5 nM | EC50 [3]: 0.12 nM | EC50 [4]: 0.09 nM

B4: CD38hyb5739/CD28sup x CD3mid_ENLQ DKTHT IgG4 FALA (other)
light 1: DIVMTQTPLSLSVTPGQPASISCKSSQSLVHENLQTYLSWYLQKPGQSPQSLIYKVSNRFSGVPDRFSGSGSGTDFTLKISRVEAEDVGVYYCGQGTQYPFTFGSGTKVEIKDKTHTDIQMTQSPSSLSASVGDRVTITCQASQNIYVWLNWYQQKPGKAPKLLIYKASNLHTGVPSRFSGSGSGTDFTLTISSLQPEDIATYYCQQGQTYPYTFGQGTKLEIKDKTHTRTVAAPSVFIFPPSDEQLKSGTASVVCLLNNFYPREAKVQWKVDNALQSGNSQESVTEQDSKDSTYSLSSTLTLSKADYEKHKVYACEVTHQGLSSPVTKSFNRGEC
heavy 1: QVQLVQSGAEVVKPGASVKVSCKASGYTFTSYYIHWVRQAPGQGLEWIGSIYPGNVNTNYAQKFQGRATLTVDTSISTAYMELSRLRSDDTAVYYCTRSHYGLDWNFDVWGKGTTVTVSSDKTHTQVQLVESGGGVVQPGRSLRLSCAASGFTFTKAWMHWVRQAPGKQLEWVAQIKDKSNSYATYYADSVKGRFTISRDDSKNTLYLQMNSLRAEDTAVYYCRGVYYALSPFDYWGQGTLVTVSSDKTHTASTKGPSVFPLAPCSRSTSESTAALGCLVKDYFPEPVTVSWNSGALTSGVHTFPAVLQSSGLYSLSSVVTVPSSSLGTKTYTCNVDHKPSNTKVDKRVESKYGPPCPPCPAPEAAGGPSVFLFPPKPKDTLMISRTPEVTCVVVDVSQEDPEVQFNWYVDGVEVHNAKTKPREEQFNSTYRVVSVLTVLHQDWLNGKEYKCKVSNKGLPSSIEKTISKAKGQPREPQVCTLPPSQEEMTKNQVSLSCAVKGFYPSDIAVEWESNGQPENNYKTTPPVLDSDGSFFLVSKLTVDKSRWQEGNVFSCSVMHEALHNHYTQKSLSLSLG
heavy 2: QVQLQQSGPELVRPGTSVKVSCKASGYAFTTYLVEWIKQRPGQGLEWIGVINPGSGSTNYNEKFKGKATLTVDRSSTTAYMHLSGLTSDDSAVYFCARYAYGYWGQGTTLTVSSASTKGPSVFPLAPCSRSTSESTAALGCLVKDYFPEPVTVSWNSGALTSGVHTFPAVLQSSGLYSLSSVVTVPSSSLGTKTYTCNVDHKPSNTKVDKRVESKYGPPCPPCPAPEAAGGPSVFLFPPKPKDTLMISRTPEVTCVVVDVSQEDPEVQFNWYVDGVEVHNAKTKPREEQFNSTYRVVSVLTVLHQDWLNGKEYKCKVSNKGLPSSIEKTISKAKGQPREPQVYTLPPCQEEMTKNQVSLWCLVKGFYPSDIAVEWESNGQPENNYKTTPPVLDSDGSFFLYSKLTVDKSRWQEGNVFSCSVMHEALHNHYTQKSLSLSLG
light 2: DIVMTQSQKFMSASVGDRVSITCKASQNVGTAVAWYQQQPGHSPKQLIYSASNRYTGVPDRFTGSGAGTDFTLTISNIQSEDLADYFCQQYSTYPFTFGSGTKLEIKRTVAAPSVFIFPPSDEQLKSGTASVVCLLNNFYPREAKVQWKVDNALQSGNSQESVTEQDSKDSTYSLSSTLTLSKADYEKHKVYACEVTHQGLSSPVTKSFNRGEC
notes: Trispecific antibody; also called BP # 6′
EC50 of in vitro killing of OCI-LY19 (CD38+/CD28-) cells, With Dara [7]: 0.219 nM | EC50 of in vitro killing of OCI-LY19 (CD38+/CD28-) cells, With human IgG1 [7]: 0.061 nM | EC50 of in vitro killing of NCI-H929 (CD38+/CD28+) cells, With Dara [8]: 0.00911 nM | EC50 of in vitro killing of NCI-H929 (CD38+/CD28+) cells, With human IgG1 [8]: 0.00274 nM | EC50 [9]: 10.8 nM | EC50 [10]: 0.984 nM | EC50 [11]: 0.825 nM | EC50 [12]: 1.63 nM | Kd [13]: 5.57 nM | koff [13]: 0.00546 s⁻¹ | kon [13]: 980000 M⁻¹ s⁻¹

Now from value to binder:

EC50 [1]: 38 nM | EC50 [2]: 15 nM | EC50 [3]: 1.4 nM | EC50 [4]: 0.86 nM | Kd [5]: 40 nM | Kd [6]: 26 nM
B3: AntiCD38_hhy_1195 (antibody, V domains shown)
VH: QVQLVESGGGVVQPGRSLRLSCAASGFTFSSYGMYWVRQAPGKGLEWVAVIWYDGSNKYYADSVKGRFTISRDNSKNTLYLQMNSLRAEDTAVYHCARDPGLRYFDGGMDVWGQGTTVTVSS
VL: DIQLTQSPSFLSASVGDRVTITCRASQGISSYLAWYQQKPGKAPKLLIFAASTLHSGVPSRFSGSGSGTEFTLTISSLQPEDFATYYCQQLNSFPYTFGQGTKLEIK

EC50 [1]: 100 nM | EC50 [2]: 288 nM | EC50 [3]: 0.09 nM | EC50 [4]: 0.08 nM | Kd [5]: 0.365 nM | Kd [6]: 6.12 nM
B5: AntiCD38_hhy_992 (antibody, V domains shown)
VH: QVQLVQSGAEVKKPGASVKVSCKVSGYTLTEFSIHWVRQAPGQGLEWMGGFDPEDGETIYAQKFQGRVIMTEDTSTDTAYMEMNSLRSEDTAIYYCTTGRFFDWFWGQGTLVTVSS
VL: EIILTQSPAILSLSPGERATLSCRASQSVISRFLSWYQVKPGLAPRLLIYGASTRATGIPVRFSGSGSGTDFSLTISSLQPEDCAVYYCQQDSNLPITFGQGTRLEIK
